± gives the standard deviation of the averaged measurements.
B1: library; a variant is named by its letters at N, in order (parent)
chain: GCUGUCACCGAGAAACUGUGAAGUAUAUCUUAAACCUGGGCACUUAAAAGAUAUAUGGAGUUAGUAGUGCAACCUGCUCGGUCUGAUGAGUCCNNNNNNGGACGAAACAGC

Columns and labels:
cyclic di-GMP [1] = variants of: B1; assay: FACS-Seq fitted mean relative fluorescence mCherry/BFP without ligand (log10 relative fluorescence); HEK293T; ligand: cyclic di-GMP (c-di-GMP-II aptamer); higher = higher reporter protein expression; conditions: ligand present: no
Outline: (§1)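 An mCherry reporter containing the ribozyme switch and an EF1α-BFP marker were introduced by lentivirus into HEK293T libraries. Cells were enriched, incubated 48 h with or without ligand, sorted into 6 bins by mCherry/BFP, and bin genomic DNA was PCR-amplified, barcoded and sequenced on MiSeq. Fluorescence represents the normalized fitted normal mean of the bin counts. Fitting was done on log10(mCherry/BFP), scaling to five spiked-in control ribozymes.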

cyclic di-GMP [2] = variants of: B1; assay: normalized RNA/DNA level without ligand (relative to sTRSVctl = 100) (log10 (% of sTRSVctl)); HEK293T; ligand: cyclic di-GMP (c-di-GMP-II aptamer); higher = less ribozyme self-cleavage, higher mRNA level; conditions: reporter: mCherry (pCS4076), ligand present: no
Method: (§2)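 Hammerhead (sTRSV) ribozyme switch libraries with a ligand aptamer grafted on stem I and a randomized N4-6 loop II, cloned into the 3' UTR of mCherry and transiently transfected into HEK293T cells; RNA-Seq 72 h post transfection with ligand added 1 h before transfection; RNA read count / plasmid DNA read count normalized to the non-cleaving sTRSVctl (x100), log10; sequences with >100 DNA reads. FACS-Seq: lentiviral library sorted into 6 bins after 48 h ligand, log-normal fit mean of mCherry/BFP scaled to controls. Printed sequences are partial switch sequences.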

cyclic di-GMP [3] = variants of: B1; assay: FACS-Seq fitted mean relative fluorescence mCherry/BFP with ligand (log10 relative fluorescence); HEK293T; ligand: cyclic di-GMP (c-di-GMP-II aptamer); ligand concentration (+) FACS-Seq: 1 mM; higher = higher reporter protein expression; conditions: ligand present: yes
Outline: as §1

cyclic di-GMP [4] = variants of: B1; assay: normalized RNA/DNA level with ligand (relative to sTRSVctl = 100) (log10 (% of sTRSVctl)); HEK293T; ligand: cyclic di-GMP (c-di-GMP-II aptamer); ligand concentration (+) RNA-Seq: 1 mM; higher = less ribozyme self-cleavage, higher mRNA level; conditions: reporter: mCherry (pCS4076), ligand present: yes
Method: as §2

Row | Variant | FACS-Seq fitted mean (log10) (cyclic di-GMP [1]) | normalized RNA/DNA level without ligand (log10) (cyclic di-GMP [2]) | FACS-Seq fitted mean (log10) (cyclic di-GMP [3]) | normalized RNA/DNA level with ligand (log10) (cyclic di-GMP [4])
1 | UCUGCU | -0.406 ± 0.013 | 1.786 ± 0.0052 | -0.176 ± 0.02 | 1.88 ± 0.081
2 | AUUGGU | -0.24 ± 0.092 | 1.58 ± 0.052 | 0.0192 ± 0.053 | 1.78 ± 0.14
3 | UACCCU | -0.513 ± 0.0088 | 1.74 ± 0.024 | -0.201 ± 0.055 | 1.87 ± 0.09
4 | UUGAUG | -0.5233 ± 0.005 | 1.547 ± 0.013 | -0.419 ± 0.053 | 1.75 ± 0.14
5 | AGGAUA | -0.5971 ± 0.0057 | 1.34 ± 0.12 | -0.199 ± 0.011 | 1.49 ± 0.018
6 | UCGCAA | -0.351 ± 0.038 | 1.47 ± 0.019 | -0.0919 ± 0.063 | 1.69 ± 0.18
7 | GCUGCA | 0.156 ± 0.0048 | 1.77 ± 0.025 | 0.255 ± 0.059 | 1.85 ± 0.089
8 | CUUUCA | -0.391 ± 0.0064 | 1.42 ± 0.11 | -0.114 ± 0.028 | 1.66 ± 0.051
9 | CUUUCU | -0.275 ± 0.072 | 1.65 ± 0.072 | 0.0435 ± 0.082 | 1.77 ± 0.095
10 | GUUCAU | -0.4248 ± 0.00049 | 1.69 ± 0.027 | -0.137 ± 0.0014 | 1.85 ± 0.092
11 | CCUGCC | -0.367 ± 0.12 | 1.79 ± 0.018 | -0.0275 ± 0.059 | 1.89 ± 0.052
12 | AGGAAA | -0.514 ± 0.031 | 1.33 ± 0.15 | -0.185 ± 0.026 | 1.52 ± 0.1
13 | AACGAG | -0.834 ± 0.078 | 1.53 ± 0.1 | -0.763 ± 0.099 | 1.71 ± 0.069
14 | AACGAU | -0.207 ± 0.075 | 1.57 ± 0.052 | 0.0583 ± 0.17 | 1.76 ± 0.096
15 | UCCCUG | 0.234 ± 0.092 | 1.776 ± 0.0073 | 0.44 ± 0.0075 | 1.89 ± 0.13
16 | AGAAUC | -0.291 ± 0.023 | 1.63 ± 0.06 | -0.0843 ± 0.044 | 1.78 ± 0.073
17 | GCAAAU | -0.773 ± 0.072 | 1.39 ± 0.071 | -0.484 ± 0.094 | 1.61 ± 0.12
18 | GCAAAG | -0.5587 ± 0.0035 | 1.41 ± 0.099 | -0.278 ± 0.024 | 1.62 ± 0.087

Row | Variant | FACS-Seq fitted mean (log10) (cyclic di-GMP [1]) | normalized RNA/DNA level without ligand (log10) (cyclic di-GMP [2]) | FACS-Seq fitted mean (log10) (cyclic di-GMP [3]) | normalized RNA/DNA level with ligand (log10) (cyclic di-GMP [4])
19 | UAGUAU | -0.121 ± 0.12 | 1.61 ± 0.028 | 0.192 ± 0.1 | 1.78 ± 0.064
20 | UGAUAU | -0.406 ± 0.087 | 1.649 ± 0.0089 | -0.0482 ± 0.1 | 1.82 ± 0.08
21 | GUGAAG | -0.453 ± 0.027 | 1.5 ± 0.067 | -0.278 ± 0.08 | 1.66 ± 0.064
22 | GUACAA | -0.163 ± 0.036 | 1.5 ± 0.065 | 0.191 ± 0.07 | 1.68 ± 0.061
23 | UUUAGU | 0.00244 ± 0.12 | 1.732 ± 0.013 | 0.273 ± 0.034 | 1.87 ± 0.088
24 | AACUCC | 0.000732 ± 0.015 | 1.815 ± 0.0033 | 0.225 ± 0.013 | 1.91 ± 0.097
25 | AUCUGG | -0.899 ± 0.093 | 1.67 ± 0.058 | -0.683 ± 0.046 | 1.81 ± 0.12
26 | ACCACC | -0.899 ± 0.064 | 1.6 ± 0.088 | -0.618 ± 0.019 | 1.76 ± 0.097
27 | GAACUA | -0.288 ± 0.19 | 1.6 ± 0.068 | 0.0146 ± 0.12 | 1.77 ± 0.091
28 | CGGCUA | -0.523 ± 0.084 | 1.33 ± 0.088 | -0.355 ± 0.014 | 1.46 ± 0.18
29 | CAUAAU | -0.282 ± 0.056 | 1.46 ± 0.092 | -0.0129 ± 0.014 | 1.63 ± 0.072
30 | CAUAAA | -0.673 ± 0.064 | 1.23 ± 0.14 | -0.363 ± 0.021 | 1.42 ± 0.066
31 | UGUUGA | -0.163 ± 0.015 | 1.6 ± 0.041 | -0.0478 ± 0.051 | 1.78 ± 0.12
32 | AAAGUC | 0.135 ± 0.29 | 1.574 ± 0.0057 | 0.392 ± 0.048 | 1.75 ± 0.1
33 | CAUGGA | -0.378 ± 0.071 | 1.52 ± 0.052 | -0.00583 ± 0.069 | 1.74 ± 0.077
34 | GUAGAA | -0.503 ± 0.021 | 1.39 ± 0.081 | -0.1892 ± 0.0011 | 1.63 ± 0.1
35 | CGUUCU | -0.248 ± 0.08 | 1.51 ± 0.084 | 0.0758 ± 0.01 | 1.68 ± 0.068
36 | GCAGGU | -0.184 ± 0.0055 | 1.66 ± 0.054 | 0.0315 ± 0.013 | 1.79 ± 0.15

From the supplement of paper PMC6757056
